# Data taken from patent publication US20160333095A1 (published 2016).
# Columns and labels:
# cynomolgus CD3 [1] = biological target: T1, cynomolgus CD3 (UniProt Q95LI5 22-198); assay: FACS binding, HSC-F cells
# T1 chain: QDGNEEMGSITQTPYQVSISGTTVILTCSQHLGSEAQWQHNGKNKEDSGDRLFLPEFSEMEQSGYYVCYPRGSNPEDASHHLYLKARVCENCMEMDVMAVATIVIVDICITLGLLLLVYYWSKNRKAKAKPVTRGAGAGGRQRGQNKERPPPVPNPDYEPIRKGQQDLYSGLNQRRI
# human CD3 [2] = biological target: T2, human CD3 (UniProt P07766 22-207); assay: FACS binding, Jurkat cells
# cynomolgus CD3 [3] = biological target: T1, cynomolgus CD3; assay: FACS binding, HSC-F cells
# human CD3 [4] = biological target: T2, human CD3; assay: FACS binding, Jurkat cells; remark: listed apart in the source
# cynomolgus CD3 [5] = biological target: T1, cynomolgus CD3; assay: FACS binding, HSC-F cells; Fig 2A
# human CD3 [6] = biological target: T2, human CD3; assay: FACS binding, Jurkat cells; Fig 1A
# human CD3 [7] = biological target: T2, human CD3; assay: FACS binding, Jurkat cells; Fig 1B
# cynomolgus CD3 [8] = biological target: T1, cynomolgus CD3; assay: FACS binding, HSC-F cells; Fig 2B
# T2 sequence (P07766 22-207): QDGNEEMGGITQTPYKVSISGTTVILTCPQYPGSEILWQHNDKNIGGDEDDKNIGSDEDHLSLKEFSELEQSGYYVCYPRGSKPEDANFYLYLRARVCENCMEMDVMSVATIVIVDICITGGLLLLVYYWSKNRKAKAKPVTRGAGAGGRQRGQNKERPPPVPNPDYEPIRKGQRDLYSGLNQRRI
Binder,EC50 (cynomolgus CD3 [3]),EC50 (human CD3 [4]),EC50 (cynomolgus CD3 [5]),EC50 (human CD3 [6]),further results
"bsIgG1-huCD3-H3L3×HER2-LFLEDA (bispecific antibody, V domains shown) VH 1: EVKLVESGGGLVKPGRSLRLSCAASGFTFNTYAMNWVRQAPGKGLEWVARIRSKYNNYATYYADSVKDRFTISRDDSKSILYLQMNSLKTEDTAMYYCVRHGNFGNSYVSWFAYWGQGTLVTVSS VL 1: QAVVTQEPSFSVSPGGTVTLTCRSSTGAVTTSNYANWVQQTPGQAFRGLIGGTNKRAPGVPARFSGSILGNKAALTITGAQADDESDYYCALWYSNLWVFGGGTKLTVL VH 2: QVQLVQSGAEVKKPGASVKVSCKASGYTFTNYGISWVRQAPGQGLEWMGWLSAYSGNTIYAQKLQGRVTMTTDTSTTTAYMELRSLRSDDTAVYYCARDRIVVRPDYFDYWGQGTLVTVSS VL 2: EIVLTQSPATLSLSPGERATLSCRASQSVSSYLAWYQQKPGQAPRLLIYDASNRATGIPARFSGSGSGTDFTLTISSLEPEDFAVYYCQQRSNWPRTFGQGTKVEIK",,,,,EC50 (cynomolgus CD3 [1]): 0.26 µg/mL; EC50 (human CD3 [2]): 0.74 µg/mL
"IgG1-huCD3-H3L3-LFLEDA (antibody, V domains shown) VH: EVKLVESGGGLVKPGRSLRLSCAASGFTFNTYAMNWVRQAPGKGLEWVARIRSKYNNYATYYADSVKDRFTISRDDSKSILYLQMNSLKTEDTAMYYCVRHGNFGNSYVSWFAYWGQGTLVTVSS VL: QAVVTQEPSFSVSPGGTVTLTCRSSTGAVTTSNYANWVQQTPGQAFRGLIGGTNKRAPGVPARFSGSILGNKAALTITGAQADDESDYYCALWYSNLWVFGGGTKLTVL",0.03 µg/mL,0.08 µg/mL,,,
"bsIgG1-huCD3-H1L3×HER2-LFLEDA (bispecific antibody, V domains shown) VH 1: EVKLVESGGGLVQPGGSLRLSCAASGFTFNTYAMNWVRQAPGKGLEWVARIRSKYNNYATYYADSVKDRFTISRDDSKSSLYLQMNNLKTEDTAMYYCVRHGNFGNSYVSWFAYWGQGTLVTVSS VL 1: QAVVTQEPSFSVSPGGTVTLTCRSSTGAVTTSNYANWVQQTPGQAFRGLIGGTNKRAPGVPARFSGSILGNKAALTITGAQADDESDYYCALWYSNLWVFGGGTKLTVL VH 2: QVQLVQSGAEVKKPGASVKVSCKASGYTFTNYGISWVRQAPGQGLEWMGWLSAYSGNTIYAQKLQGRVTMTTDTSTTTAYMELRSLRSDDTAVYYCARDRIVVRPDYFDYWGQGTLVTVSS VL 2: EIVLTQSPATLSLSPGERATLSCRASQSVSSYLAWYQQKPGQAPRLLIYDASNRATGIPARFSGSGSGTDFTLTISSLEPEDFAVYYCQQRSNWPRTFGQGTKVEIK",,,,,EC50 (cynomolgus CD3 [1]): 0.25 µg/mL; EC50 (human CD3 [2]): 0.58 µg/mL
"bsIgG1-huCD3-H4L1×HER2-LFLEDA (bispecific antibody, V domains shown) VH 1: EVKLVESGGGLVKPGRSLRLSCAASGFTFNTYAMNWVRQAPGKGLEWVARIRSKYNNYATYYADSVKDRFTISRDDSKSILYLQMNSLKTEDTAMYYCVRHGNFGNSYVSWFAYWGQGTMVTVSS VL 1: not shown VH 2: QVQLVQSGAEVKKPGASVKVSCKASGYTFTNYGISWVRQAPGQGLEWMGWLSAYSGNTIYAQKLQGRVTMTTDTSTTTAYMELRSLRSDDTAVYYCARDRIVVRPDYFDYWGQGTLVTVSS VL 2: EIVLTQSPATLSLSPGERATLSCRASQSVSSYLAWYQQKPGQAPRLLIYDASNRATGIPARFSGSGSGTDFTLTISSLEPEDFAVYYCQQRSNWPRTFGQGTKVEIK",,,,,EC50 (cynomolgus CD3 [1]): 0.36 µg/mL; EC50 (human CD3 [2]): 0.62 µg/mL
"bsIgG1-huCD3-H1L1×HER2-LFLEDA (bispecific antibody, V domains shown) VH 1: EVKLVESGGGLVQPGGSLRLSCAASGFTFNTYAMNWVRQAPGKGLEWVARIRSKYNNYATYYADSVKDRFTISRDDSKSSLYLQMNNLKTEDTAMYYCVRHGNFGNSYVSWFAYWGQGTLVTVSS VL 1: not shown VH 2: QVQLVQSGAEVKKPGASVKVSCKASGYTFTNYGISWVRQAPGQGLEWMGWLSAYSGNTIYAQKLQGRVTMTTDTSTTTAYMELRSLRSDDTAVYYCARDRIVVRPDYFDYWGQGTLVTVSS VL 2: EIVLTQSPATLSLSPGERATLSCRASQSVSSYLAWYQQKPGQAPRLLIYDASNRATGIPARFSGSGSGTDFTLTISSLEPEDFAVYYCQQRSNWPRTFGQGTKVEIK",,,,,EC50 (cynomolgus CD3 [1]): 0.32 µg/mL
"IgG1-huCD3-H4L3-LFLEDA (antibody, V domains shown) VH: EVKLVESGGGLVKPGRSLRLSCAASGFTFNTYAMNWVRQAPGKGLEWVARIRSKYNNYATYYADSVKDRFTISRDDSKSILYLQMNSLKTEDTAMYYCVRHGNFGNSYVSWFAYWGQGTMVTVSS VL: QAVVTQEPSFSVSPGGTVTLTCRSSTGAVTTSNYANWVQQTPGQAFRGLIGGTNKRAPGVPARFSGSILGNKAALTITGAQADDESDYYCALWYSNLWVFGGGTKLTVL",0.02 µg/mL,0.08 µg/mL,,,
"IgG1-huCD3-H1L3-LFLEDA (antibody, V domains shown) VH: EVKLVESGGGLVQPGGSLRLSCAASGFTFNTYAMNWVRQAPGKGLEWVARIRSKYNNYATYYADSVKDRFTISRDDSKSSLYLQMNNLKTEDTAMYYCVRHGNFGNSYVSWFAYWGQGTLVTVSS VL: QAVVTQEPSFSVSPGGTVTLTCRSSTGAVTTSNYANWVQQTPGQAFRGLIGGTNKRAPGVPARFSGSILGNKAALTITGAQADDESDYYCALWYSNLWVFGGGTKLTVL",0.03 µg/mL,0.11 µg/mL,,,
"IgG1-huCD3-H1L2 (antibody, V domains shown) VH: EVKLVESGGGLVQPGGSLRLSCAASGFTFNTYAMNWVRQAPGKGLEWVARIRSKYNNYATYYADSVKDRFTISRDDSKSSLYLQMNNLKTEDTAMYYCVRHGNFGNSYVSWFAYWGQGTLVTVSS VL: QAVVTQEPSFSVSPGGTVTLTCRSSTGAVTTSNYANWVQQTPGQAFRGLIGGTNKRAPGVPARFSGSILGNKAALTITGAQADDESIYFCALWYSNLWVFGGGTKLTVL",,,0.31 µg/mL,0.08 µg/mL,
"IgG1-huCD3-H4L1-LFLEDA (antibody, V domains shown) VH: EVKLVESGGGLVKPGRSLRLSCAASGFTFNTYAMNWVRQAPGKGLEWVARIRSKYNNYATYYADSVKDRFTISRDDSKSILYLQMNSLKTEDTAMYYCVRHGNFGNSYVSWFAYWGQGTMVTVSS VL: not shown",0.03 µg/mL,0.06 µg/mL,,,
"bsIgG1 CD3×HER2 (bispecific antibody, V domains shown) VH 1: EVKLLESGGGLVQPKGSLKLSCAASGFTFNTYAMNWVRQAPGKGLEWVARIRSKYNNYATYYADSVKDRFTISRDDSQSILYLQMNNLKTEDTAMYYCVRHGNFGNSYVSWFAYWGQGTLVTVSA VL 1: QAVVTQESALTTSPGETVTLTCRSSTGAVTTSNYANWVQEKPDHLFTGLIGGTNKRAPGVPARFSGSLIGDKAALTITGAQTEDEAIYFCALWYSNLWVFGGGTKLTVL VH 2: QVQLVQSGAEVKKPGASVKVSCKASGYTFTNYGISWVRQAPGQGLEWMGWLSAYSGNTIYAQKLQGRVTMTTDTSTTTAYMELRSLRSDDTAVYYCARDRIVVRPDYFDYWGQGTLVTVSS VL 2: EIVLTQSPATLSLSPGERATLSCRASQSVSSYLAWYQQKPGQAPRLLIYDASNRATGIPARFSGSGSGTDFTLTISSLEPEDFAVYYCQQRSNWPRTFGQGTKVEIK",,,,,EC50 (human CD3 [7]): 0.68 µg/mL
"IgG1-huCD3-H1L3 (antibody, V domains shown) VH: EVKLVESGGGLVQPGGSLRLSCAASGFTFNTYAMNWVRQAPGKGLEWVARIRSKYNNYATYYADSVKDRFTISRDDSKSSLYLQMNNLKTEDTAMYYCVRHGNFGNSYVSWFAYWGQGTLVTVSS VL: QAVVTQEPSFSVSPGGTVTLTCRSSTGAVTTSNYANWVQQTPGQAFRGLIGGTNKRAPGVPARFSGSILGNKAALTITGAQADDESDYYCALWYSNLWVFGGGTKLTVL",,,0.28 µg/mL,0.06 µg/mL,
"IgG1-huCD3-H3L1-LFLEDA (antibody, V domains shown) VH: EVKLVESGGGLVKPGRSLRLSCAASGFTFNTYAMNWVRQAPGKGLEWVARIRSKYNNYATYYADSVKDRFTISRDDSKSILYLQMNSLKTEDTAMYYCVRHGNFGNSYVSWFAYWGQGTLVTVSS VL: not shown",0.04 µg/mL,0.1 µg/mL,0.19 µg/mL,0.04 µg/mL,EC50 (cynomolgus CD3 [8]): 0.3 µg/mL; EC50 (human CD3 [7]): 0.04 µg/mL
"IgG1-huCD3-H1L1 (antibody, V domains shown) VH: EVKLVESGGGLVQPGGSLRLSCAASGFTFNTYAMNWVRQAPGKGLEWVARIRSKYNNYATYYADSVKDRFTISRDDSKSSLYLQMNNLKTEDTAMYYCVRHGNFGNSYVSWFAYWGQGTLVTVSS VL: not shown",,,0.37 µg/mL,,
"IgG1-huCD3-H1L1-LFLEDA (antibody, V domains shown) VH: EVKLVESGGGLVQPGGSLRLSCAASGFTFNTYAMNWVRQAPGKGLEWVARIRSKYNNYATYYADSVKDRFTISRDDSKSSLYLQMNNLKTEDTAMYYCVRHGNFGNSYVSWFAYWGQGTLVTVSS VL: not shown",0.03 µg/mL,,,,
"IgG1-huCD3-H3L3 (antibody, V domains shown) VH: EVKLVESGGGLVKPGRSLRLSCAASGFTFNTYAMNWVRQAPGKGLEWVARIRSKYNNYATYYADSVKDRFTISRDDSKSILYLQMNSLKTEDTAMYYCVRHGNFGNSYVSWFAYWGQGTLVTVSS VL: QAVVTQEPSFSVSPGGTVTLTCRSSTGAVTTSNYANWVQQTPGQAFRGLIGGTNKRAPGVPARFSGSILGNKAALTITGAQADDESDYYCALWYSNLWVFGGGTKLTVL",,,0.11 µg/mL,0.02 µg/mL,
"IgG1-huCD3-H4L1 (antibody, V domains shown) VH: EVKLVESGGGLVKPGRSLRLSCAASGFTFNTYAMNWVRQAPGKGLEWVARIRSKYNNYATYYADSVKDRFTISRDDSKSILYLQMNSLKTEDTAMYYCVRHGNFGNSYVSWFAYWGQGTMVTVSS VL: not shown",,,0.26 µg/mL,0.05 µg/mL,
